Biological target: complement C5 (human) (UniProt P01031)
Assay: SPR

Sequence of complement C5 (human) (P01031 19-673, chain 1 of 2): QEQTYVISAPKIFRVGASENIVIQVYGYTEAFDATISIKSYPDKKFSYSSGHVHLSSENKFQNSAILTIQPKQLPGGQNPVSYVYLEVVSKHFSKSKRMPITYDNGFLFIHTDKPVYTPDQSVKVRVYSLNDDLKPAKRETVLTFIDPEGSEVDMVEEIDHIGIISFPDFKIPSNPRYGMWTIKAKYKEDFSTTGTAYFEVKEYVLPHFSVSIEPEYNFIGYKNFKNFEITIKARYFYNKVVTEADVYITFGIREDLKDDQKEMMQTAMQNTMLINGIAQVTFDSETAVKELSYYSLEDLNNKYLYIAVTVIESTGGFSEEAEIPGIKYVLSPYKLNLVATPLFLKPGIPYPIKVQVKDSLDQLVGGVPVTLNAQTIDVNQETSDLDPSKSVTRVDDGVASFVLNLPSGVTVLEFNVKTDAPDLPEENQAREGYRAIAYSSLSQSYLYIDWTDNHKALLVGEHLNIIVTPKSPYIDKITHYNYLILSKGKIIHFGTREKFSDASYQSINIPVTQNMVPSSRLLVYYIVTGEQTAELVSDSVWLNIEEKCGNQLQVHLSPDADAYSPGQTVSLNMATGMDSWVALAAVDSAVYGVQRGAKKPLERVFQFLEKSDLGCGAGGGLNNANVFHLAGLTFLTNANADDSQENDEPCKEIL
Sequence of complement C5 (human) (P01031 678-1676, chain 2 of 2): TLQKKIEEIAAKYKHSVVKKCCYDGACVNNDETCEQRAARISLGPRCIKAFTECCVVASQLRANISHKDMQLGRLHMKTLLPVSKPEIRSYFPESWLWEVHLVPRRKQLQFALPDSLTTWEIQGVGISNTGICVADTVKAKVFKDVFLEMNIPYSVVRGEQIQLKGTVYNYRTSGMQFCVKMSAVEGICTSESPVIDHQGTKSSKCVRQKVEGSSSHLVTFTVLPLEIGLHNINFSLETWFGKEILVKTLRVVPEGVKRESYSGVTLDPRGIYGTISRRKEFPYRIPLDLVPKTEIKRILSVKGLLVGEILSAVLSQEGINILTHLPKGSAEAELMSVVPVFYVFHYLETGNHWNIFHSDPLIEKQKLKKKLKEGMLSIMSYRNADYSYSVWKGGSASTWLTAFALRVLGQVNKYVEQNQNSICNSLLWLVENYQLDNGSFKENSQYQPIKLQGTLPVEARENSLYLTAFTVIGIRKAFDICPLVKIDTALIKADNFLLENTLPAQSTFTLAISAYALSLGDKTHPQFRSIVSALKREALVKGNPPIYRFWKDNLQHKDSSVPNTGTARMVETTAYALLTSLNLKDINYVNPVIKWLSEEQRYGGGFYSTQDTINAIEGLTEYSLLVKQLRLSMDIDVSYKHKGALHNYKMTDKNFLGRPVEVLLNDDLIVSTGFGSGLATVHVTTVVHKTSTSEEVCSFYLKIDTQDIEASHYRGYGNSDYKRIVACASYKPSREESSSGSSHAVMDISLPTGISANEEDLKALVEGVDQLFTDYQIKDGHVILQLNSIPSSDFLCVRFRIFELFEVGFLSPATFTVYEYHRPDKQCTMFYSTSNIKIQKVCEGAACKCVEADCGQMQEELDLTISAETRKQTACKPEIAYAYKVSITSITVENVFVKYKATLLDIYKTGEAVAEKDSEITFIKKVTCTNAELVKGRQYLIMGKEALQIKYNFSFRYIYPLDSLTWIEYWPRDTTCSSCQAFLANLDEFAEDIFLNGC

Substance: CirpT1 (Complement Inhibitor from Rhipicephalus pulchellus of the Terminal Pathway 1) (natural protein)
- Kd: 10 nM
